Assay: soluble fraction after stress (log2 fold change); higher = more stays soluble; pooled small domains, quantitative proteomics
Settings: stress: 75 degC
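Further: 20 min heating vs room temperature control held 20 min.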

Sequence | soluble fraction (log2)
HMSHRVGDVVELTAVRMNDQGVFLDAGTGNTSDDILLHKHQMTSPVSVGDKVKVQLYLDAKNRITASMKL | -0.36
HMSIEIIEITSNSSPKNLSEIIDIDATQIVADLMGLGIMKAIDTPLENSEIEQLLEKYNLIAEFVE | -2.76
HMSILEIFGRNVQKYRKEQRLSQEKLAEYAGLHRTYIGMIERAEKNITLVNIEKIAKALNINLTKLLE | -4.25
HMSILTELDIGDKVEVVAGPFKGIQANITRIEPVRKEVTVILLDAPYQLPVTVDADYLKIIQKS | -1.63
HMSINISFEPADHLGKDVIFIRFPYDNEWIQRVRKLKGAKWSQSQRAWHVPDTEHYRTLFQLPQKI | -2.73
HMSIQDLMNSKDLSGFKVEMLSNEDIVKYKSMLQSSGFSESQAEQLALQRGLPTSELIKLRTRISDVAVT | 0.199
HMSIQELMNSKDLSSFKVEMLSDEDIAKYKGLLQNSGLTEAQAEQMALQRGLPSSELLKLKARLSGI | 0.118
HMSIQREIILEVIKNNRTHPTAEEIYILVTKKEPKISRSTVYRNINILVEKGIIEKITIATGPDRYDY | -1.53
HMSISDEDFAKLLDFVKEKWDAGELDNAEDIKAAISEGEKEFGVSLDESTRTTLASALQQLN | 0.274
HMSIYDAPIEDLKFSTRIFNSLKRADIHTVADLIAHSRDDLMKVRNLGATSLDELIEKLGTHGLQLADP | -0.412
HMSIYYQIYESLKKDLSNNLYKPGEKLPSENVLSKRFGVNRHTIRRSLQLLKNEGILFSKRGSGIIVHD | -3.45
HMSKDKEKRTREHVLGILKKYDKVMTDKAFTVFKKMIKDESILEMELIKLINFIGERKEIRSKDVLAVVTE | -0.504
HMSKEIQNILASLPSVDVLLKQIDPIYPHGKAKEATQQVVARLRESVVDGTRKTVIDQKEVIAMIHKQLEE | -0.293
HMSKETTYEVLSLKGDEWQTDTIYSDRDEAIEAARNLHGDPHIDGAKVISEVYDDKTGGSKETTIFNT | 0.535
HMSKHAIQNELEKIEGIGKQTADSLLKEFKSVKKLRTLPLSEIEKVIGKSKATIVFEALHKDK | 0.00931
HMSKHATLLEALADLSVKLKPHSQLPSERALSEEYGVSRMTLRRAIDVLQARGYIYSVPSKGLFVSEP | -1.89
HMSKHATLLEALAELTVKLKPHTQLPSERQLSEDFGVSRMTLRRAIDVMQSRGYIYTVPSKGLYVSEP | -1.72
HMSKIRTFRVKTVAVDQAYQVLKDYSPIKISTESNAVIIDLDESKTPAEIAGYLEKNGIKVDNIEVIAESE | 0.962
HMSKISKENEQQVIQIVQTLLLNVQDKSLITTQILNEKINLAVSLDTKYKENLDRDYIIEELIRRYSVW | -2.93

Sequence | soluble fraction (log2)
HMSKKIVLPAAITVKKFSETLDMPLGTVISELMKNGILATINERIDFETASIIAQDLGYEVSEEV | -0.216
HMSKKQEQALQSREKLLDAATALFAEHGYRDTSVQAIGEKAGVSRGSIFWHFGSKEGLLWAVVERAFTA | 0.303
HMSKKTQKDEVVDLFLKTGNEPLHYKEISKKTGIIVHNVRRITGQNVVGKTDNPVFKRVSPGVYKLID | -0.72
HMSKLSVSSLSSPEVQNQLKAAGIDVNSRQYQVVMKDMMGALDGRAGYTTVSAIKNRMRQYNADGDY | 0.687
HMSKMVEMSQEKSREKVARVKIEIQKMLDRKERVTVSGLERATGFSNSFFYRNEEVNQAVKEAQLKQ | -0.138
HMSKNIRQQFLDVLPKTFDRNQYLETAKKLSINAKTAEGYIKKFVEANLLDHPKHNHYINLKKVEEVETK | -0.0919
HMSKNYYEILGVTPDVELSQLKAVYRRLVRKYHPDINPDGELIFKDITEAYEVLSDEKQRKQYDMINGF | -0.596
HMSKPILSFVDPEKDPSHYVKRYITEETYKDWFSEHFPDYTLYEGIGITQEEYRNIVNELTKP | -0.5
HMSKPIYSELLREIRSGDVKELTLIPQRREVLVEYSDGRKATVSILANDQQVLRTAESAGVPLTVK | -0.0278
HMSKPVFQTHSVRSADSATVFDVLQTLLAGTPDARIAIDPKTNAIVAWARPETQEVIAKSIMEMEG | 0.0746
HMSKQIEVPDVTDMTVSDAIDVLQDKGFVVSDEQKEVASSEIEEGRVVRTSPAVGSKRKDGTVVTLYVSI | 0.353
HMSKTEEIAYTTFVKYLENKDIEEVYLGNNAKIKVILKDGREMITDNPRTADFKKDLLLHDIKVVEKT | -0.0889
HMSKYGIAYSEVLEILKHIPIEDYNKIPRNEIELFETYADKDFTFNYDSSKTLEEQNVSNITKGIIIL | -0.56
HMSLEEQNGAKDRQVEAYELLLKAQRALDQEDTAGFQAAMKDLEPLSSQLDAQGQTLYHELLPFVS | -0.232
HMSLGSNISRLRAEKHLSQGDLAEALDVSRQSVSKWETDGSVPDLDKLVKLSRIFGVTLDELVTGTP | -0.039
HMSLIHEQSLKEIRIFINNLPESLRTAFTLREQDGLSYEEISKITDTPIGTVRSRIFRARESILEHINEEL | -2.25
HMSLLTPLEEARIVIEELIIPQKLTLDLLPQNSQIRKLQHEIINHYRLKGISIGDGKNRRVRIYS | -0.204
HMSLMHEESLKNIRRFINSLPESLRTAFTLREQDGLSYEEIGVITETPIGTVRSRIFRAREAILEHIKKEL | -2.39
HMSLMLYVEDVDTAFKKAIELGATEIRPVHDQFYGDRAGTLQDPFGHIWIIGTHKEDVSDEELNNRIGNI | 0.104
